Results: US20240043515A1 (Chugai, published 2024)

T1: human FcγRIIa R extracellular domain (human, UniProt P12318 34-217)
T1 construct: extracellular domain; also called hFcγR IIa R; FcγRIIa allotype R131
T1 sequence (looked up): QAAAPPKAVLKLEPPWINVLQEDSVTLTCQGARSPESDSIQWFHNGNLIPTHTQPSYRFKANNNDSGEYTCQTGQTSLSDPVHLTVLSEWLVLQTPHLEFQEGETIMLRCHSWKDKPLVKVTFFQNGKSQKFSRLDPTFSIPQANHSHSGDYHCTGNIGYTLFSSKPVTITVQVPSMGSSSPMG

T2: human FcγRIIa H extracellular domain (human, UniProt P12318 34-217)
T2 construct: extracellular domain; also called hFcγR IIa H; FcγRIIa allotype H131
T2 sequence (looked up): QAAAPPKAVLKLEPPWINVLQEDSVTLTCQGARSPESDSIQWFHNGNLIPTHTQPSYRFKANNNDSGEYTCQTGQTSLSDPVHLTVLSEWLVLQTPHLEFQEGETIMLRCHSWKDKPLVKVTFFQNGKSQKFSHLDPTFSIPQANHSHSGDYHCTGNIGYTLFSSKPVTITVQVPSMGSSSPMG

T3: human FcγRIIb extracellular domain (human, UniProt P31994 43-217)
T3 construct: extracellular domain; also called hFcγR IIb
T3 sequence (looked up): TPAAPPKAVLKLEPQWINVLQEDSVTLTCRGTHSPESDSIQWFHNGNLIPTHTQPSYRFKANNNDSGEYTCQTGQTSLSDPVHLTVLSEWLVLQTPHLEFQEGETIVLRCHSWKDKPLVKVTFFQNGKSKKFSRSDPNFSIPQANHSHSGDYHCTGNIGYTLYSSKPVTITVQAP

T4: hFcγRIIaH on Jurkat effector cells (human, UniProt P12318 34-317)
T4 sequence (looked up): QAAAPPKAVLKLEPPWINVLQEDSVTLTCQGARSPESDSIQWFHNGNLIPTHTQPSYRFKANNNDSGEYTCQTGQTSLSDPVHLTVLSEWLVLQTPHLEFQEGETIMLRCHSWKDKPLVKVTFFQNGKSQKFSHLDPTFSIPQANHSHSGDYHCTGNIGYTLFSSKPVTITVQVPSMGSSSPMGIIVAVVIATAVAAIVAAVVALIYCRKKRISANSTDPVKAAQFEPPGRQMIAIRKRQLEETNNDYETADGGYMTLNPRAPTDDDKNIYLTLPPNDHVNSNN


Tests used:
[1] = target: T1, human FcγRIIa R extracellular domain; test: SPR; KD for hFcγRIIb divided by KD for this FcγR
Procedure: (§1) The extracellular domains of FcγRs were produced by the method described in WO2014104165. The interaction between the produced antibodies and human FcγRs was analyzed using Biacore 8K+ by the method below. For the running buffer, 50 mM Na-Phosphate, 150 mM NaCl, and 0.05% Tween20 (pH 7.4) was used, and measurement was performed at 25° C. The sensor chip used was a Series S SA chip (GE Healthcare) onto which CaptureSelect Human Fab-kappa Kinetics Biotin Conjugate (Thermo Fisher Scientific) was immobilized. An antibody of interest was captured onto this chip, and each FcγR diluted with the running buffer was allowed to interact with it. The chip was regenerated using 10 mM Glycine-HCl (pH 1.5), and repeatedly used to capture antibodies and perform measurement. The dissociation constants KD (mol/L) of each antibody for FcγRs were calculated using Biacore Insight Evaluation Software, with a steady state affinity model for the dissociation constant for FcγRIIb and a 1:1 Langmuir binding model for the dissociation constants for the other FcγRs (Table 2).

[2] = target: T5, human FcγRIIIa F extracellular domain (human, UniProt P08637 17-208); test: SPR; KD for hFcγRIIb divided by KD for this FcγR
T5 construct: extracellular domain; also called hFcγR IIIa F; FcγRIIIa allotype F158
Procedure: as §1

[3] = target: T2, human FcγRIIa H extracellular domain; test: SPR; KD for hFcγRIIb divided by KD for this FcγR
Procedure: as §1

[4] = target: T6, human FcγRIIIa V extracellular domain (human, UniProt P08637 17-208); test: SPR; KD for hFcγRIIb divided by KD for this FcγR
T6 construct: extracellular domain; also called hFcγR IIIa V; FcγRIIIa allotype V158
Procedure: as §1

[5] = target: hFcγRIIIaV on Jurkat effector cells (human, UniProt P08637 17-254); test: cell-based or functional assay
[6] = target: T1, human FcγRIIa R extracellular domain; test: SPR; KD of G1d divided by KD of this antibody
Procedure: as §1

[7] = target: T7, human FcγRIa extracellular domain (human, UniProt P12314 16-292); test: SPR; KD of G1d divided by KD of this antibody
T7 construct: extracellular domain; also called hFcγR Ia
Procedure: as §1

[8] = target: T3, human FcγRIIb extracellular domain; test: SPR; KD of G1d divided by KD of this antibody
Procedure: as §1

[9] = target: T5, human FcγRIIIa F extracellular domain; test: SPR; KD of G1d divided by KD of this antibody
Procedure: as §1

[10] = target: T2, human FcγRIIa H extracellular domain; test: SPR; KD of G1d divided by KD of this antibody
Procedure: as §1

[11] = target: T6, human FcγRIIIa V extracellular domain; test: SPR; KD of G1d divided by KD of this antibody
Procedure: as §1

[12] = target: T4, hFcγRIIaH on Jurkat effector cells; test: cell-based or functional assay

T6 sequence (P08637 17-208 F176V): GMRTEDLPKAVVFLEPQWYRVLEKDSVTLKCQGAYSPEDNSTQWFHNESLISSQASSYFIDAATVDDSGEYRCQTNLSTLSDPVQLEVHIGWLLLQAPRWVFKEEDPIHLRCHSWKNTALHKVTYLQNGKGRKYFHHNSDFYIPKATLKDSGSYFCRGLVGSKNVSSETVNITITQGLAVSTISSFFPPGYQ
T5 sequence (P08637 17-208): as the sequence (P08637 17-208 F176V) above, with V160F counted along it
hFcγRIIIaV on Jurkat effector cells, sequence (P08637 17-254, form in doubt): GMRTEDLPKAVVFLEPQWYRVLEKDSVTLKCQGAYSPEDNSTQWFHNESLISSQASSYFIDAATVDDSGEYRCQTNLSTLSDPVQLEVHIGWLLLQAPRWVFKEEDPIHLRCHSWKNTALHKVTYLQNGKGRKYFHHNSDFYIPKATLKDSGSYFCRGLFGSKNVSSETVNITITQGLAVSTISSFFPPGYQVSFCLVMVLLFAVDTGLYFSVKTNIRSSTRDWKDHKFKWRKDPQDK
T7 sequence (P12314 16-292): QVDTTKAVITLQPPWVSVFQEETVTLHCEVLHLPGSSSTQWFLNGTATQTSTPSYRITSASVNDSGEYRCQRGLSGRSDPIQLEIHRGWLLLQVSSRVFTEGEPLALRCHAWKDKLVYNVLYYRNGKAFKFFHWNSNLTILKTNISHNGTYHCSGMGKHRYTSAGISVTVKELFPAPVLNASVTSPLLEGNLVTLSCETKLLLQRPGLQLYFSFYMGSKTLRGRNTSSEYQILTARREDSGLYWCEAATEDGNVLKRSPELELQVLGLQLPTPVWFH

Row | A/I ratio (KD for FcγRIIb divided by KD for each FcγR) [1] [ratio] | A/I ratio (KD for FcγRIIb divided by KD for each FcγR) [2] [ratio] | A/I ratio (KD for FcγRIIb divided by KD for each FcγR) [3] [ratio] | A/I ratio (KD for FcγRIIb divided by KD for each FcγR) [4] [ratio] | EC50 of reporter gene induction (ADCC Reporter Bioassay, Hepa1-6/hEREG target cells) [5] [µg/mL] | Relative value to KD between G1d and hFcgRs [6] [times] | Relative value to KD between G1d and hFcgRs [7] [times] | Relative value to KD between G1d and hFcgRs [8] [times] | Relative value to KD between G1d and hFcgRs [9] [times] | Relative value to KD between G1d and hFcgRs [10] [times] | Relative value to KD between G1d and hFcgRs [11] [times] | EC50 of reporter gene induction (ADCP Reporter Bioassay, Hepa1-6/hEREG target cells) [12] [µg/mL] | Binder
1 | 11.5 | 694 | 63.3 | 3970 | 0.000413 | 1.3 | 2.4 | 0.7 | 141 | 4.9 | 97.5 | 0.0367 | EGL-ART11 (H240-Kn496/L73-k0//H240-H1516/L73-k0) (antibody, human IgG1, kappa, Kn496: L234F/L235Q/G236W/S239M/T250V/H268D/D270E/S298A/T307P + Y349C/T366W; H1516: T250V/D270E/S298A/T307P/K326D/K334E + D356C/T366S/L368A/Y407V) heavy 1: QDQLVQSGAEVKKPGASVKVSCKASGFNIKDTYIQWVRQAPGQGLEWMGRIDPLRKQTKYREKFEGRVTITADTSTNTAYMELSSLRSEDTAVYYCVRSGREFDYWGQGTLVTVSSASTKGPSVFPLAPSSKSTSGGTAALGCLVKDYFPEPVTVSWNSGALTSGVHTFPAVLQSSGLYSLSSVVTVPSSSLGTQTYICNVNHKPSNTKVDKKVEPKSCDKTHTCPPCPAPEFQWGPMVFLFPPKPKDVLMISRTPEVTCVVVDVSDEEPEVKFNWYVDGVEVHNAKTKPREEQYNATYRVVSVLPVLHQDWLNGKEYKCKVSNKALPAPIEKTISKAKGQPREPQVCTLPPSRDELTKNQVSLWCLVKGFYPSDIAVEWESNGQPENNYKTTPPVLDSDGSFFLYSKLTVDKSRWQQGNVFSCSVMHEALHNHYTQKSLSLSP heavy 2: QDQLVQSGAEVKKPGASVKVSCKASGFNIKDTYIQWVRQAPGQGLEWMGRIDPLRKQTKYREKFEGRVTITADTSTNTAYMELSSLRSEDTAVYYCVRSGREFDYWGQGTLVTVSSASTKGPSVFPLAPSSKSTSGGTAALGCLVKDYFPEPVTVSWNSGALTSGVHTFPAVLQSSGLYSLSSVVTVPSSSLGTQTYICNVNHKPSNTKVDKKVEPKSCDKTHTCPPCPAPELLGGPSVFLFPPKPKDVLMISRTPEVTCVVVDVSHEEPEVKFNWYVDGVEVHNAKTKPREEQYNATYRVVSVLPVLHQDWLNGKEYKCKVSNDALPAPIEETISKAKGQPREPQVYTLPPSRCELTKNQVSLSCAVKGFYPSDIAVEWESNGQPENNYKTTPPVLDSDGSFFLVSKLTVDKSRWQQGNVFSCSVMHEALHNHYTQKSLSLSP light: DIQMTQSPSSLSASVGDRVTITCRASQDIHKYIAWYQQKPGQAPRLLIQYTSTLQPGVPSRFSGSGSGTDYTFTISSLQPEDIATYYCLQYEQLRTFGGGTKVEIKRTVAAPSVFIFPPSDEQLKSGTASVVCLLNNFYPREAKVQWKVDNALQSGNSQESVTEQDSKDSTYSLSSTLTLSKADYEKHKVYACEVTHQGLSSPVTKSFNRGEC
2 | 12.4 | 4950 | 47.4 | 11300 | 0.000716 | 1.6 | 3 | 0.8 | 1170 | 4.3 | 323 | 0.0353 | EGL-ART1 (H240-Kn125/L73-k0//H240-H1076/L73-k0) (antibody, human IgG1, kappa, Heterodimeric Fc variant of the anti-human Epiregulin IgG1; Kn125: L234Y/L235Q/G236W/S239M/H268D/D270E/S298A + Y349C/T366W; H1076: D270E/K326D/A330M/K334E + D356C/T366S/L368A/Y407V (EU numbering); also called Kn125/H1076) heavy 1: QDQLVQSGAEVKKPGASVKVSCKASGFNIKDTYIQWVRQAPGQGLEWMGRIDPLRKQTKYREKFEGRVTITADTSTNTAYMELSSLRSEDTAVYYCVRSGREFDYWGQGTLVTVSSASTKGPSVFPLAPSSKSTSGGTAALGCLVKDYFPEPVTVSWNSGALTSGVHTFPAVLQSSGLYSLSSVVTVPSSSLGTQTYICNVNHKPSNTKVDKKVEPKSCDKTHTCPPCPAPEYQWGPMVFLFPPKPKDTLMISRTPEVTCVVVDVSDEEPEVKFNWYVDGVEVHNAKTKPREEQYNATYRVVSVLTVLHQDWLNGKEYKCKVSNKALPAPIEKTISKAKGQPREPQVCTLPPSRDELTKNQVSLWCLVKGFYPSDIAVEWESNGQPENNYKTTPPVLDSDGSFFLYSKLTVDKSRWQQGNVFSCSVMHEALHNHYTQKSLSLSP heavy 2: QDQLVQSGAEVKKPGASVKVSCKASGFNIKDTYIQWVRQAPGQGLEWMGRIDPLRKQTKYREKFEGRVTITADTSTNTAYMELSSLRSEDTAVYYCVRSGREFDYWGQGTLVTVSSASTKGPSVFPLAPSSKSTSGGTAALGCLVKDYFPEPVTVSWNSGALTSGVHTFPAVLQSSGLYSLSSVVTVPSSSLGTQTYICNVNHKPSNTKVDKKVEPKSCDKTHTCPPCPAPELLGGPSVFLFPPKPKDTLMISRTPEVTCVVVDVSHEEPEVKFNWYVDGVEVHNAKTKPREEQYNSTYRVVSVLTVLHQDWLNGKEYKCKVSNDALPMPIEETISKAKGQPREPQVYTLPPSRCELTKNQVSLSCAVKGFYPSDIAVEWESNGQPENNYKTTPPVLDSDGSFFLVSKLTVDKSRWQQGNVFSCSVMHEALHNHYTQKSLSLSP light: DIQMTQSPSSLSASVGDRVTITCRASQDIHKYIAWYQQKPGQAPRLLIQYTSTLQPGVPSRFSGSGSGTDYTFTISSLQPEDIATYYCLQYEQLRTFGGGTKVEIKRTVAAPSVFIFPPSDEQLKSGTASVVCLLNNFYPREAKVQWKVDNALQSGNSQESVTEQDSKDSTYSLSSTLTLSKADYEKHKVYACEVTHQGLSSPVTKSFNRGEC
